# Laboratory results: publication PMC3942486, “The Ansamycin Antibiotic, Rifamycin SV, Inhibits BCL6 Transcriptional Repression and Forms a Complex with the BCL6-BTB/POZ Domain” (PLoS ONE, 2014)
# Target: BCL6-POZ domain (residues 7 to 128 of human BCL6, C8Q, C67R, C84N) (UniProt P41182)
# Test: fluorescence polarisation
row,Kd [µM],Substance
1,41,"wild-type SMRT peptide, labelled with BODIPY TMR H1426(styrylalanine)"
2,43,"wild-type SMRT peptide, labelled with BODIPY TMR H1426(homophenylalanine)"
